Test results published in publication doi:10.1101/2022.10.05.511050 (bioRxiv, 2022).
Where “and” joins values, the source holds several entries; their conditions need not be identical. Identical values can stand only once.

Target: HA-tagged NLRC4 (UniProt Q3UP24 1-1024)
Assay: co-IP

Chain of HA-tagged NLRC4 (Q3UP24 whole entry): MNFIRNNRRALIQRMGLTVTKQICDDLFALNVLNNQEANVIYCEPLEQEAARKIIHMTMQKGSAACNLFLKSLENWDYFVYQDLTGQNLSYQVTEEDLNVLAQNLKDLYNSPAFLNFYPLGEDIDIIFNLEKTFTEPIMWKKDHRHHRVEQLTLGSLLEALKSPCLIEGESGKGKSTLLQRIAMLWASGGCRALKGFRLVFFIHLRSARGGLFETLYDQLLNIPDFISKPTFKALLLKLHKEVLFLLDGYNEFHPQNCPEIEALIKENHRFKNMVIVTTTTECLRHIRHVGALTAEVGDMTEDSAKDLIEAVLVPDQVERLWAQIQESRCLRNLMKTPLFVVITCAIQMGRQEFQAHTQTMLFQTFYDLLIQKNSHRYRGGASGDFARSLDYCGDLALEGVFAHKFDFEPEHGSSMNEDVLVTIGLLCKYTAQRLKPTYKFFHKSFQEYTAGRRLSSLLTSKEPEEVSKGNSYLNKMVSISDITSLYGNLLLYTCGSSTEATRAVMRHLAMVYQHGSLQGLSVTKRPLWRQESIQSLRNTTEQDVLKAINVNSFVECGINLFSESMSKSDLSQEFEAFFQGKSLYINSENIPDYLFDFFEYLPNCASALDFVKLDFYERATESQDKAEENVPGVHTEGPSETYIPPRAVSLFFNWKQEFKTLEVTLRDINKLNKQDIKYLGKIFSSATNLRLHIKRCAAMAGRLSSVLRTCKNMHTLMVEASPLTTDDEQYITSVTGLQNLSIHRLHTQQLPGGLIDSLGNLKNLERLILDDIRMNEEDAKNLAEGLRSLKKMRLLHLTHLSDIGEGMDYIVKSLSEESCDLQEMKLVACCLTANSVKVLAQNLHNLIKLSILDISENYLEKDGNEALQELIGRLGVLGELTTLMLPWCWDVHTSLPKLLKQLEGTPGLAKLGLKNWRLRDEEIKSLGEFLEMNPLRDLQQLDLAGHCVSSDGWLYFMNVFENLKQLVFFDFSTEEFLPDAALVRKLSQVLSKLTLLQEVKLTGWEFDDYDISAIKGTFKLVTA

B1: HA-tagged PELO (natural protein)
chain: MKLVRKDIEKDNAGQVTLVPEEPEDMWHTFNLVQVGDSLRASTIRKVQTESSTGSVGSNRVRTTLTLCVEAIDFDSQACQLRVKGTNIQENEYVKMGAYHTIELEPNRQFTLAKKQWDSVVLERIEQACDPAWSADVAAVVMQEGLAHVCLVTPSMTLTRAKVEVNIPRKRKGNCSQHDRALERFYEQVVQAIQRHINFEVVKCVLVASPGFVREQFCDYMFQQAVKTDNKVLLENRSKFLQVHASSGHKYSLKEALCDPTVASRLSDTKAAGEVKALDDFYKMLQHEPDRAFYGLKQVERANEALAIDTLLISDELFRHQDVATRSRYVRLVDSVKENAGTVRIFSSLHVSGEQLGQLTGVAAILRFPVPELSDQEDDSSSEED
In the case of B1, the “stoichiometry N” value is reported as < 0.05 PELO per NLRC4 and ~0.05 PELO per NLRC4.
